Assay: yeast display, Sf9 membrane polyspecificity reagent, FACS + sequencing; frameworks hold sequencing errors
Outline: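 Using colony PCR, genes from sorted yeast display clones were amplified, then sequenced on MiSeq at 2 × 250 and filtered by CDR length. The clones had been stained with 10% biotinylated, detergent-solubilized Sf9 membrane reagent for 1 hour at 4 °C and sorted by FACS into low and high (top ~1%) gates on anti-HA and streptavidin fluorescence. Polyreactivity labels come from the gate of origin.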
With “QVQLVESGGGLVQAGGSLRLSCDASGSPFEWYGMGWYRQAPGKERELVDAITSGGSTNYADSVKGRFTISRDNAKNTVYLQMNCLKPEVPAVYYCNAEYKPYHYYKAWVYTYDYGYWGQGTQVTVSS” the “polyreactivity (PSR sort gate)” value was “low polyreactivity”.
With “QVQLVESGGGLVQAGGSLRLSCAASGSTLKYNALGWYRQAPGKERELVAAISTSGGNTYYADSVKGRFTISRDYAKNTVYLQMNTLKPEDTAVYYCAKVLGFYYYDYYTPFARGYWGQGTQVTVSS” the “polyreactivity (PSR sort gate)” value was “low polyreactivity”.
In the case of “QVQLVESGGGLVQAVGSLRLSCAASGSTFKAYAMGWYRQAPGKERELVAAITKSGGRTYYADSVKGRFTISRDNAKNTVYLQMNSLKPEDTAVYYCAAVFRPDSSAYRYYYLGQGTQVTVSS”, the “polyreactivity (PSR sort gate)” value was “high polyreactivity”.
In the case of “QVQLVESGGGLVQAGGSLRLSCAASGRTFYTYAMGWYRQAPGKARELVAAISSSGSTYYADSVKGRFTISRDNAKNTVDLQMNSLKPEDTAGYYCNARTSRYRRGGDSWGQGTQVTVSS”, the “polyreactivity (PSR sort gate)” value was “high polyreactivity”.
With “QVQLVESGGGLVQAGGSLRLSCAASGYTFHDYAMGWYRQAPGKERELVAAISKRGGSTYYADSVKGRFTISRDNAKNTVYLQMNSLKPEDTAVYYCAKGGPHRGTGLNDYWGQGTQVTVSS” the “polyreactivity (PSR sort gate)” value was “high polyreactivity”.
For “QVQLVESGGGLVQAGGSLRLICAASGSIFYGNTMGWYRQARGKERELVAAISSGGSTYYADSVKGRFTISRDNAKNSVYLQMNSLKPEDTAVYYCAREDYSHSFLTYDYWGQGSQVTVSS”, the “polyreactivity (PSR sort gate)” value was “low polyreactivity”.
With “QVQLVESGGGLVQAGGSLRLSCAASGSIFGGYTMGWYRQAPGKERELVAAISRRGGNTYYADSVKGRFTISRDYAKNTVYLHMKSMKPEDTAVYYCAVRWPSARIPVKLDYWGQGTQVTVSS” the “polyreactivity (PSR sort gate)” value was “high polyreactivity”.
For “QVQLVESGGGLVQAGGSLRLSCAASGRTFRTNDMGWYRQAPGKERELVARITRGGSTYADSVKGRFTISRDNAKNTVYLHMNSLKPEDTAVYYCAAVTKLSGIRYNYWGQGTQVTVSS”, the “polyreactivity (PSR sort gate)” value was “low polyreactivity”.
In the case of “QVQLVESGGGLVQAGGSLRLSCAASGRTFGTYALGWYRQAPGKERELVASITSGDSTNYADSVKGRFTISRDNAKNTVYLQMNRLKPEDTAVYYCNARGDVIVTPPKFSFNYEYWGQGTQVTVSS”, the “polyreactivity (PSR sort gate)” value was “low polyreactivity”.
In the case of “QVQLVESGGGLVQAGGSLRLSCAASGFIFPRNVMGWYRQAPGKERELVAAISRSGGSTYYADSVKGRFTISPDNVKNTVFLQMNSLIPEDTAVYYFAKRTFYNGEYWGQGTQVTVSS”, the “polyreactivity (PSR sort gate)” value was “low polyreactivity”.
In the case of “QVQLVESGGGLVQAGGSLRLSCAASGRIINYNVMGWYRQAPRKEMELVAAITRGGSTYYADSVKVRFTISRDNAKNTVYLQMNILKPEDTEVYYCSADTARRPRSYYYWGQGTQVTVSS”, the “polyreactivity (PSR sort gate)” value was “low polyreactivity”.
In the case of “QVQLVESGGGLVQAGGSRRVSCAASGCIFGYNDMGWSRQAPGKDRELDASITWGGGRTRYADSVKGRFTISRDNAKNTVDLHMNSLKPEDTAVYYGAADKRSYSYVRPPRNQEDYWGQGTQVTVSS”, the “polyreactivity (PSR sort gate)” value was “low polyreactivity”.
In the case of “QVQLVESGGGLLQAGGSLRLSCAASGIIIYYYAMGWYRQAPGKERELVAAITYRGGSTYADSVKGRFTISRDNAKNTVYLQMNSLKPEDTAVYYCNAVWEEKYQAPGSYDYWGQGTQVTVSS”, the “polyreactivity (PSR sort gate)” value was “low polyreactivity”.
With “QVQLVESGGGLVQAGGSLRLICAASGIIFYKYTMGWYRQAPGKERELVAAITKSGVRTYYADSVKGRFTISRDNAKNTVYLQMNSLKPEDTAVYYCAAKTPTKDRGSDFDYWGQGTQVTVSS” the “polyreactivity (PSR sort gate)” value was “high polyreactivity”.
In the case of “QVQLVESGGGLVQAGGSLRLRCSASGSTIKDYTMGLYRQAPGKERELVAAITDSGGSTYYADSVKGRFTISRDNAKNTVYLQMNSLTPEDTAVYFCAAAVPELYEVRYHDDYWGQGTQVTVSS”, the “polyreactivity (PSR sort gate)” value was “low polyreactivity”.
In the case of “QVQLVESGGGLVQAGGSLRLSCAASGIIFQGYVMGWYRQAPGKERELVAVISRTRGSTYYADSVKGRFTISRDNAKNTVYLQMNSLKPEDTAVYYCAAGTPRLRYLQGHRMNYWGQGTQVTVSS”, the “polyreactivity (PSR sort gate)” value was “high polyreactivity”.
With “QVQLVESGGGLVQAGGSLRLSCAASGSIFSWYAMGWYRQAPGKERELVAAIDSGSKYYADSVKGRFTISRDNAKNTVYLQMNSLKPEDTAVYYCAVDYGYYYWEPWPSDYDMYSWGQGTQVTVSS” the “polyreactivity (PSR sort gate)” value was “high polyreactivity”.
In the case of “QVQLVESGAGLVQAGGSLRLTCAASGFIFRDYAMGGYRQAPGKDRELVAAISSGDSTNYADSVKGRFTISRDNAKNTVYLLMNSLKPEDTAVYYCAADQVQYTGYTEYDWGQGTQVTVSS”, the “polyreactivity (PSR sort gate)” value was “low polyreactivity”.
With “QVQLVESGGGLVQAGGSLRLSCAASGFIFYKNAMGWYRQAPGKERELVADISKRGASTYYADSVKGRFTISRDNAKNTVYLQMNSLKPEDTAVYYCAAGYYRASTTVTHGGIEGDSWGQGTQVTVSS” the “polyreactivity (PSR sort gate)” value was “high polyreactivity”.
With “QVQLVESGGRLVQAGGSLRLSCSASGFTLIHYAMGWYRQAHGKERELVAGITTSGGSTYYADSVKGRFTISRDNAKNTVYLQMNSLKPEDTAFYYCAAGSTTGQTGKVGYWGQGTQVTVSS” the “polyreactivity (PSR sort gate)” value was “high polyreactivity”.
In the case of “QVQLVESGGGLVQAGGSLRLSCAASGLIFGGYAMGWYRQAPGKERELVATITSGGSTNYADSVKGRFTISRDNAKNTVYLQMNSLKPEDTAVYYCAAAERQGFPSVYPTYQWDYDYWGQGTQVTVSS”, the “polyreactivity (PSR sort gate)” value was “low polyreactivity”.
For “QVQLVESGGGLVQAGGSLRLSCAASGRIFRYYAMGWYRQAPGKERELVAAITQRGGSTYADSVKGRFTISRDNANNTVYLQMNSLKPEDTAVFYCAYRGSFLYDYWGQGTQVTVSS”, the “polyreactivity (PSR sort gate)” value was “low polyreactivity”.
For “QVQLVESGGGLVQAGGSLRLSCAACGSIVRDYAMGWYRQAPGKERELVAAIRQSGGRTYYADSVKGRFTISRDNAKNTVYLQMNSLKPDDTAVYYCIARRANYWKKASTQYYYWGQGTQVTVSS”, the “polyreactivity (PSR sort gate)” value was “high polyreactivity”.
In the case of “QDQLVESGGGLVQAGGSLRLSCAASGRIFRPNTMGWYRQAPGKERELVASISLSAGSTYYADSVKGRFTISRDNAKNTVYLQMNSLKPEDTAVYYCNATYLSWYRYKYNYWGQGTQVTVSS”, the “polyreactivity (PSR sort gate)” value was “low polyreactivity”.
In the case of “QVQLVESGGGLVQAGGSLRLSCAASGSIFGNYAMGWYRQAPGKERELVAGISKSGGRTYYADSVKGRFTISRDNAKITVYLQMNRLKPEDTAVYYCNALVTRYQSLDRLGDYWGQGTQVTVSS”, the “polyreactivity (PSR sort gate)” value was “high polyreactivity”.
For “QVQLVESGGGIVQAGGSLRLSCAASGFTFRYNTMGWYRQAPGKERELVAAITSRGTSTYYADSVKGRFTISRDNAKNTVYLQMYSLKPEDTAVYYCNKVYFKGTTRLSVSVYKLEYWGQGTQVTVSS”, the “polyreactivity (PSR sort gate)” value was “high polyreactivity”.
In the case of “QVQLVESGGGLVQAGGSRRLSCAASGLIMDYYAMGWYRQAPGKERELVAAISSGGTDTYYADSVKGRFTITRDNAKNTVYLQMNSLKPEDTAVYYCAADSYWSAYDYWGQGTQVTVSS”, the “polyreactivity (PSR sort gate)” value was “low polyreactivity”.
For “QVQLVESGGGLVQAGGSLRLSCAASGRTFYDNTMGWYRQAPGKERELVAAISRGGSTYADSVKGRFTISRDNAKNTVYLELNSLKPEDTAVYYSNKRSITTEYGYWGQGTQVTVSS”, the “polyreactivity (PSR sort gate)” value was “low polyreactivity”.
With “QVQLVESGGGLVQAGGSLRLRCAASVRIFRVYAMGRYSQAPGKERELVAAISSSGGSTYYADSVKGRFTMSRDNAKNTDYLQMNSLKPEDTAVYYCAAGGLHTIQRPGYYYWGQGTQVTVSS” the “polyreactivity (PSR sort gate)” value was “low polyreactivity”.
In the case of “QVQLVESGGGLVQAGGSLRLSCAASGSIFYDNAMGWYRQAPGKERELVASIRWSGDSTYYADSVKGRFTISRDNAKNTVYLQMNSLKPEDTAVYYCAADPVEPYFTAIAYDFWGQGTQVTVSS”, the “polyreactivity (PSR sort gate)” value was “low polyreactivity”.
In the case of “QVQLVESGGALVQAGGSLRLSCAASGSIFVPYTMGWYRQAPGKERELVSSISYSGGTTYYADSVKGRFTISRDYAKNTVYLQMNSLKPEDTAVYYCAADWDESYSYRRYSHYDYWGQGTQVTVSS”, the “polyreactivity (PSR sort gate)” value was “low polyreactivity”.
For “QVQLVESGGGLVQAGGSLRLSCAASGSIFLWYDMGWYRQAPGKERECVASITRSGGSTYYADSVKGRFTISRDNAKNTVYLQMNSLKPEDTAVYYCAASGATGRYSVYYHGYTYDYWGQGTQVTVSS”, the “polyreactivity (PSR sort gate)” value was “low polyreactivity”.
For “QVQLLESGGGLVQAGGSLRLSCAASGFTLTRNAMGWYRQAPGKEREFVAAISWSGGSTYADSVKGRFTISRDNAKNTVFLQMNSLKPEDTAVYYCAADRYNGRYGYWGQGTQVTVSS”, the “polyreactivity (PSR sort gate)” value was “high polyreactivity”.
In the case of “QVQLVESGGGLVQAGGSLRLSCAASGRIFGENAMGWYRQAPGKEREFVAVISISDASTYYADSVKGRFTISRDNAKNTVYLQMNSLKPEDTAVYYCNTDYINGYYIEGEPPYKFDYWGQGTQVTVSS”, the “polyreactivity (PSR sort gate)” value was “low polyreactivity”.
With “QVQLVESGGGLVQAGGSLRLSCAASGRTFNTNAMGWYRQAPGKERELVAAITRSGDSTYYADSVKGRFTISRDNAKNTVYLQMNSLKPEDTAVYYCAAYSRTLYPDRYYWGHGTQVTVSS” the “polyreactivity (PSR sort gate)” value was “high polyreactivity”.
In the case of “QVQLVESGGGLVQAGGSLRLSCAASGSIFTPYAMGWYRQAPGKERELVAAISWRGGNTYYADSVKGRFTISRDNAKNTFYLQMNSLKPEETAVYYCAAEQYSVYETGSYDYWGQGTQVTVSS”, the “polyreactivity (PSR sort gate)” value was “low polyreactivity”.
For “QVQLVESGGGLVQAGGSLRLSCAASGRSFGTNAMVSYIQAPGKEREFVAAIRKSGATTYYADSVKGRFTISRDNAKNTVYLQMNSLKPDDTAVYYCAADFFYYGKWYSGYYWGQGTQVTVSS”, the “polyreactivity (PSR sort gate)” value was “high polyreactivity”.
For “QVQLVESGGGSVQAGGRLRLRCAASGLIFYYYAMGWYRQAPGKERELVADIDRGGDTYYADSVKGRFTISRDNAKNNVYLQMNSLKPEDTEVYYCAAVDSYGYVPVFGYWGQGTQVTVSS”, the “polyreactivity (PSR sort gate)” value was “low polyreactivity”.
In the case of “QVQLVESGGGLVQAGGSLRLSCAASGSIFLAYPMGWYRQAPGKEREFVAAISFSDGSTYYADSVKGRFTISRDNAKNTVYLQMNSLKPEDTAVYYCNKRASPDDYDYWGQGTQVTVSS”, the “polyreactivity (PSR sort gate)” value was “low polyreactivity”.
For “QVQLVESGGGLVQAGGSLRLSCAASGFIFRYYTMGWYRQAPGKERELVATITSGGSTYYADSVKGRFTISRDNAKNTVYLQMNSLKPEDTAVYYCAKVRDVLWRFNYWGQGTQVTVSS”, the “polyreactivity (PSR sort gate)” value was “high polyreactivity”.

From the nanobody polyreactivity screen of Harvey et al. (2022)
